In patent US20250250593A1, “METHOD FOR PREPARING ALPHA-BRANCHED BETA'-HYDROXY CARBONYL COMPOUNDS BY ENZYMATIC-CATALYZED REDUCTIVE ALDOL REACTION” (Max-Planck-Gesellschaft zur Förderung der Wissenschaften …, priority 2022, published 2025):

Legend:
[1] = system: KsCcr; test: HPLC analysis of reaction products: 2-HMB-CoA formed over total products from crotonyl-CoA and formaldehyde; assay type: biochemical, Kitasatospora setae; conditions: for Ratio of 2-HMB-CoA formed over total products: triplicates, mean ± standard deviation, values given as %
From the text: KsCcr wild-type (WT) natively promotes the NADPH-dependent reductive carboxylation of crotonyl-CoA into ethylmalonyl-CoA. […] Under these conditions, neither ethylmalonyl-CoA (carboxylation product) nor butyryl-CoA (reduction side product) were detected with LC-MS (see Table 2 further below). […] The compound was isolated and its structure was further verified using 2-dimensional NMR and high-resolution MS experiments. […] The newly introduced carbon was also observed in the ^13C-NMR experiment, confirming formation of aldol product 2-HMB-CoA by KsCcr.
The reaction was diluted 10 times into 5% methanol/Buffer 8.1 and analyzed by HPLC over an Agilent Eclipse Plus C18, 3.5 μm 100 Å, 100×2.1 mm, […] column using 5% to 30% acetonitrile gradient over 7.5 min with 25 mM ammonium formate pH=8.1 as the aqueous phase.

[2] = system: KsCcr; test: Reductive aldol reaction with longer chain aldehydes (acetaldehyde, propionaldehyde): product share and diastereomeric ratio by LC-MS; assay type: biochemical, Kitasatospora setae
Description: The reaction catalyzed by KsCcr generates an (S)-configured stereocenter at the α-position of the reaction product. When using higher substituted aldehydes, a second stereocenter would be generated at the β-position, which would be highly interesting for synthetic organic applications. It was first tested, whether KsCcr would accept longer chain aldehydes. Indeed, in the presence of 500 mM acetaldehyde, the enzyme formed 35% of 2-ethyl-3-hydroxybutyryl-CoA (2-EHB-CoA) over total products, with substantial amounts of butyryl-CoA as a side product. To improve yield, an acyl-CoA oxidase was used to continually recycle the side product butyryl-CoA back into the substrate crotonyl-CoA. With this proof-reading strategy the yield of the reaction could be increased up to 72%. High resolution mass spectrometry together with ^1H^−1H COSY and ^13C-NMR experiments confirmed the structure of 2-EHB-CoA.
To determine the stereochemistry at the β-position the reaction was analyzed by LC-MS and compared the retention times to chemically synthesized (2S,3R)-EHB-CoA and (2S,3S)-EHB-CoA standards.
Determination of CoA esters was performed using a HRES-LC-MS. The chromatographic separation was performed on an Thermo Scientific Vanquish HPLC System using a Kinetex Evo C18 column ([…], 100 Å, 1.7 μm, Phenomenexc) equipped with a 20×2.1 mm guard column of similar specificity at a constant eluent flow rate of 0.3 mL/min and a column temperature of 40° C. with eluent A being 50 mM ammonium formate pH=8.1 and eluent B being MeOH (Honeywell) The injection volume was 1 μl. […]

| Molecule | Ratio of 2-HMB-CoA formed over total products ([1]; 5 mM formaldehyde) | 2-HMB-CoA produced (reductive aldol product) ([1]; 75 mM formaldehyde) [%] | Ratio of 2-HMB-CoA formed over total products ([1]; 75 mM formaldehyde) | aldol product generated ([1]; ambient conditions, CO2 not strictly avoided) [%] | yield of the reaction (2-EHB-CoA) ([2]; 500 mM acetaldehyde with acyl-CoA oxidase recycling butyryl-CoA to crotonyl-CoA (proof-reading)) | 2-ethyl-3-hydroxybutyryl-CoA (2-EHB-CoA) over total products ([2]; 500 mM acetaldehyde, butyryl-CoA as side product) [%] | conversion with propionaldehyde ([2]; compared with formaldehyde or acetaldehyde, product detected by MS) |
| --- | --- | --- | --- | --- | --- | --- | --- |
| KsCcr variant His365Asn: KsCcr active site variant His365Asn, SEQ ID NO: 19 (protein, KsCcr variant His365Asn) MQEILDAILSGDAASADYAALALPESYRAVTLHKGEERMFDGLASRDKDPRKSLHLDDVPLPELGPGEALVAVMASSVNYNTVWSSIFEPVSTFGFLERYGRLSPLTARHDLPYHVLGSDLAGVVLRTGAGVNAWKPGDEVVAHCLSVELESPDGHNDTMMDPEQRIWGFETNFGGLAQLALVKTNQLLPKPKHLTWEEAASPGLVNSTAYRQLVSRNGAGLKQGDNVLIWGASGGLGSYATQYALAGGATPICVVSSPRKADICRAMGAEAIIDRSAEGYRFWKDEHHQDPREWKRLGGKIREFTGGEDVDIVFEHPGRETFGASVYVTRKGGTIVTCASTSGYMHQYDNRYLWMSLKRIVGSNFANYREAFEANRLVAKGKIHPTLSKVYALEETGQAALDVHHNKHQGKVGVLCLAPREGLGVTDPELRSKHLTKINAFRNV | 42 ± 1 | 89 | 89 ± 0 |  |  |  |  |
| KsCcr variant Ser119Ala: KsCcr variant Ser119Ala, SEQ ID NO: 22 (protein, KsCcr variant Ser119Ala) MQEILDAILSGDAASADYAALALPESYRAVTLHKGEERMFDGLASRDKDPRKSLHLDDVPLPELGPGEALVAVMASSVNYNTVWSSIFEPVSTFGFLERYGRLSPLTARHDLPYHVLGADLAGVVLRTGAGVNAWKPGDEVVAHCLSVELESPDGHNDTMMDPEQRIWGFETNFGGLAQLALVKTNQLLPKPKHLTWEEAASPGLVNSTAYRQLVSRNGAGLKQGDNVLIWGASGGLGSYATQYALAGGATPICVVSSPRKADICRAMGAEAIIDRSAEGYRFWKDEHHQDPREWKRLGGKIREFTGGEDVDIVFEHPGRETFGASVYVTRKGGTIVTCASTSGYMHQYDNRYLWMSLKRIVGSHFANYREAFEANRLVAKGKIHPTLSKVYALEETGQAALDVHHNKHQGKVGVLCLAPREGLGVTDPELRSKHLTKINAFRNV | 37 ± 3 | 83 | 83 ± 0 |  |  |  |  |
| KsCcr WT: wild type crotonyl-CoA carboxylase/reductase obtained from Kitasatospora setae, SEQ ID NO: 1 (protein, Kitasatospora setae KsCCR crotonyl-CoA carboxylase/reductase) MQEILDAILSGDAASADYAALALPESYRAVTLHKGEERMFDGLASRDKDPRKSLHLDDVPLPELGPGEALVAVMASSVNYNTVWSSIFEPVSTFGFLERYGRLSPLTARHDLPYHVLGSDLAGVVLRTGAGVNAWKPGDEVVAHCLSVELESPDGHNDTMMDPEQRIWGFETNFGGLAQLALVKTNQLLPKPKHLTWEEAASPGLVNSTAYRQLVSRNGAGLKQGDNVLIWGASGGLGSYATQYALAGGATPICVVSSPRKADICRAMGAEAIIDRSAEGYRFWKDEHHQDPREWKRLGGKIREFTGGEDVDIVFEHPGRETFGASVYVTRKGGTIVTCASTSGYMHQYDNRYLWMSLKRIVGSHFANYREAFEANRLVAKGKIHPTLSKVYALEETGQAALDVHHNKHQGKVGVLCLAPREGLGVTDPELRSKHLTKINAFRNV | 72 ± 1± |  | 96 ± 0 | > 95 | up to 72% | 35 | strongly decreased |
| KsCcr variant Glu171Ala: KsCcr variant Glu171Ala, SEQ ID NO: 24 (protein, KsCcr variant Glu171Ala) MQEILDAILSGDAASADYAALALPESYRAVTLHKGEERMFDGLASRDKDPRKSLHLDDVPLPELGPGEALVAVMASSVNYNTVWSSIFEPVSTFGFLERYGRLSPLTARHDLPYHVLGSDLAGVVLRTGAGVNAWKPGDEVVAHCLSVELESPDGHNDTMMDPEQRIWGFATNFGGLAQLALVKTNQLLPKPKHLTWEEAASPGLVNSTAYRQLVSRNGAGLKQGDNVLIWGASGGLGSYATQYALAGGATPICVVSSPRKADICRAMGAEAIIDRSAEGYRFWKDEHHQDPREWKRLGGKIREFTGGEDVDIVFEHPGRETFGASVYVTRKGGTIVTCASTSGYMHQYDNRYLWMSLKRIVGSHFANYREAFEANRLVAKGKIHPTLSKVYALEETGQAALDVHHNKHQGKVGVLCLAPREGLGVTDPELRSKHLTKINAFRNV | 43 ± 0 |  | 89 ± 0 |  |  |  |  |
| KsCcr variant Asn81Asp: KsCcr active site variant Asn81Asp, no SEQ ID given (protein) MQEILDAILSGDAASADYAALALPESYRAVTLHKGEERMFDGLASRDKDPRKSLHLDDVPLPELGPGEALVAVMASSVNYDTVWSSIFEPVSTFGFLERYGRLSPLTARHDLPYHVLGSDLAGVVLRTGAGVNAWKPGDEVVAHCLSVELESPDGHNDTMMDPEQRIWGFETNFGGLAQLALVKTNQLLPKPKHLTWEEAASPGLVNSTAYRQLVSRNGAGLKQGDNVLIWGASGGLGSYATQYALAGGATPICVVSSPRKADICRAMGAEAIIDRSAEGYRFWKDEHHQDPREWKRLGGKIREFTGGEDVDIVFEHPGRETFGASVYVTRKGGTIVTCASTSGYMHQYDNRYLWMSLKRIVGSHFANYREAFEANRLVAKGKIHPTLSKVYALEETGQAALDVHHNKHQGKVGVLCLAPREGLGVTDPELRSKHLTKINAFRNV | 1 ± 0 |  | 11 ± 0 |  |  |  |  |
| KsCcr variant Thr82Asp: KsCcr variant Thr82Asp, SEQ ID NO: 21 (protein, KsCcr variant Thr82Asp) MQEILDAILSGDAASADYAALALPESYRAVTLHKGEERMFDGLASRDKDPRKSLHLDDVPLPELGPGEALVAVMASSVNYNDVWSSIFEPVSTFGFLERYGRLSPLTARHDLPYHVLGSDLAGVVLRTGAGVNAWKPGDEVVAHCLSVELESPDGHNDTMMDPEQRIWGFETNFGGLAQLALVKTNQLLPKPKHLTWEEAASPGLVNSTAYRQLVSRNGAGLKQGDNVLIWGASGGLGSYATQYALAGGATPICVVSSPRKADICRAMGAEAIIDRSAEGYRFWKDEHHQDPREWKRLGGKIREFTGGEDVDIVFEHPGRETFGASVYVTRKGGTIVTCASTSGYMHQYDNRYLWMSLKRIVGSHFANYREAFEANRLVAKGKIHPTLSKVYALEETGQAALDVHHNKHQGKVGVLCLAPREGLGVTDPELRSKHLTKINAFRNV | 14 ± 1 | 57 | 57 ± 1 |  |  |  |  |
